From US10550172B2, “Serpin reactive center loop peptides and methods of use” (University of Florida Research Foundation, Incorporated, priority 2015, dated 2020)
“Also recorded” adds a separate entry of the source. Where a SMILES comes first, the peptide text is derived from it. Where no end group is shown, it is not given here.

Key:
[1] = system: aortic allograft (plaque growth); experiment: Mouse aortic allograft transplant model
Protocol: To assess potential anti-inflammatory actions of individual serpin-derived peptides, peptide treatment was tested in mice after aortic allograft transplant at 4 weeks.
Ninety three mice had aortic allograft transplantation; 56 had PAI-1−/− (C57BL/6 background) donor to BALB/c (PAI-1+/+) recipient; and 37 had C57BL/6 wild type (PAI-1+/+) to BALB/c (PAI-1+/+) recipient. […] Due to the large number of surgeries required, both the PAI-1−/− and the WT mouse implants were utilized. The PAI-1−/− mice also allowed analysis of serpin response in a mouse transplant lacking a key thrombolysis regulating serpin, PAI-1. A 0.3 cm aortic segment isolated from the donor mouse was transplanted into the infra-renal aorta of recipient mice for aortic allograft studies (Table 1). The aortic transplant was anastomosed end-to-end using Sharpoint 11/0 nylon sutures (Surgical Specialties Corporation, Reiding, Mass., USA) under general anesthetic (6.5 mg/100 g body weight Somnotrol, MTC Pharmaceuticals, Cambridge, ON, Canada) given by intramuscular (i.m.) injection. WT C57BL/6 mice were purchased directly from Jackson Laboratories (Bar Harbor, Me., U.S.A.) and PAI-1−/− mice were bred in-house using mice supplied by Jackson Laboratories prior to surgery. Mice were followed for 4 weeks after transplant. […] Serpins or serpin-derived peptides were infused by intravenous (i.v.) tail vein injection immediately after transplant surgery, once aortic pulsation was again visible. At 4 weeks after aortic transplant, mice were euthanized with 0.05 ml euthanyl (Bimeda—MTC Animal Health Ltd., Cambridge, ON, Canada) by i.m. injection.
Donor aortic transplant implants and adjacent recipient aorta (0.5-0.6 cm long) were cut into two 0.25-0.3 cm pieces, fixed, paraffin embedded, and cut into 5 μm sections (two per aortic section, providing 4 sections for analysis of each transplanted mouse aorta) and stained with Haematoxylin and eosin for morphometric analysis. Areas of plaque, lumen and internal elastic lamina were measured by means of the Olympus application program using a Sony Power HAD3CCD color video camera attached to the microscope and calibrated to the microscope objective. The mean total cross sectional area of the intima, using sections with the largest detectable plaque area, was calculated for each aortic specimen. Numbers of invading mononuclear cells were counted per high powered field area at three sites in the intimal, medial and adventitial layers and the mean count for each arterial layer and specimen calculated.

[2] = system: PMA activated THP-1 monocytes; experiment: Membrane fluidity cell activation assay; format: cell-based, human; details: peptides 500, 1000, 1500 ng/ml, Serp-1, NSP 500 ng/mL
Protocol: Cellular membrane fluidity is measured by pyrene dimer formation in the lipid bilayer and is used as a non-specific measure of cell activation (Zalai C V, et al. (2001) J Am Coll Cardiol 38: 1340-1347). Increases in THP-1 human monocyte membrane fluidity, after PMA activation, correlate with changes in cell activation, adhesion and motility. […] Serpin-derived peptide treatments paralleled in vivo activity with the one exception being the S-4 peptide. […] All serpin-derived peptides were tested at three doses 500, 1000 and 1500 ng/ml.
One million >95% viable THP-1, Jurkat T, or 5×10^5 HUVEC cells were labeled with BPP (0.8 μM) for studying core membrane fluidity, three hours prior to cell activation as previously described (Viswanathan K, et al. (2009) B. J Leukoc Biol 85: 418-426; Viswanathan K, et al. (2006) Thromb Haemost 95: 499-510; Zalai C V, et al. (2001) J Am Coll Cardiol 38: 1340-1347; Viswanathan K, et al. (2012) PLoS One 7: e44694; and Christov A, et al. (2001) Lasers Surg Med 28: 414-426). […] At the end of one hour, cells were washed to remove excess fluorescent probe and monomer, excimer fluorescence emission intensities were measured at 390 nm and 485 nm, respectively, during excitation at 320 nm using a fluorescent dual wavelength reader (Fluoroskan, Thermolab systems, Oy, USA). […]

[3] = molecular target: T1, urokinase-type plasminogen activator (uPA) (Homo sapiens, UniProt P00749); experiment: uPA chromogenic enzyme activity assay; format: biochemical; details: chromogenic protease activity assay
T1 construct: purchased Sigma U0633
Protocol: Activity of purified NSP and Serp-1 was measured as inhibitory activity for uPA, using a chromogenic assay (Assaypro, St. Louis, Mo., USA) as previously described (for example, see, Dai E, et al. (2003) J Biol Chem 278: 18563-18572). Serp-1, NSP or individual peptides were mixed with enzyme solution at room temperature for one hour, per the manufacturers protocol (American Diagnostics). After incubation, 10 μl of chromogenic substrate was added. The 96-well plate was covered and placed in a wet box for overnight incubation at 37° C. After a 17 hr incubation, the plate was read at 405 nm by microplate reader (Bio-Tek Instruments). Reaction buffer (100 mM NaCl, 2 mM CaCl2, 100 mM Tris-HCl, pH 7.5, Triton X-100, 0.005%) was used for dilutions of proteases, Serp-1, NSP, or serpin peptides and chromogenic substrate. Residual protease activity was calculated with comparison to control samples without active serpin or peptides.
Serpin inhibition activity of peptides was also assessed using assays for uPA, tPA, plamin, PAI-1 and anti-thrombin III (ATIII). […] Peptide inhibition of ATIII (ThermoFisher Scientific, Grand Island, N.Y.) was measured as a reduction in its thrombin activity. uPA (Sigma, U0633) activity towards pefachrome uPA (Enzyme Research Laboratories, South Bend, Ind., P082-33) was used for assaying peptide inhibition. […]

[4] = patients with acute unstable angina after stent implantation; cited from earlier work
THP-1 monocytes = experiment: RT-PCR signaling pathway gene expression analysis, THP-1 monocytes; format: cell-based, human; details: THP-1 cells, vs saline
From the text: (§1) Shared effects of Serp-1 and S-1, one of the active Serp-1 RCL peptide inhibitors for plaque growth, on transcription of representative genes in signaling pathways were studied in human Jurkat T cell (FIG. 5A and FIG. 5B) and THP-1 monocytes (FIGS. […]). […] Serp-1 and the Serp-1 peptides (serpin-derived peptides) S-1 and S-5 were compared to saline treated controls. Genes with two-fold change in expression with P-value less than 0.05 by Student's t-test were considered significant.
(§2) To further examine potential mechanisms of inhibitory activity for individual serpin peptides, THP-1 monocyte and Jurkat T cells in culture were treated with individual serpins or serpin-derived peptides with proven inhibitory activity for plaque growth in vivo (Viswanathan K, et al. (2009) B. J Leukoc Biol 85: 418-426; Viswanathan K, et al. (2006) Thromb Haemost 95: 499-510; Chen H, et al. (2013) Antimicrob Agents Chemother 57: 4114-4127; and Viswanathan K, et al. (2012) PLoS One 7: e44694). RT-PCR signaling pathway gene arrays (Sigma-Aldrich, St. Louis, Mo., USA) were analyzed in triplicate per cell type using predicted peptide or serpin treatment.

Jurkat T cells = experiment: RT-PCR signaling pathway gene expression analysis, Jurkat T cells; format: cell-based, human; details: vs saline
From the text: as §1, §2

[5] = in vivo; cited from earlier work
lethal viral sepsis = details: in vivo; cited from earlier work

With `CC(C)C[C@H](NC(=O)[C@H](C)NC(=O)[C@H](CC(N)=O)NC(=O)[C@@H](N)CCCNC(=N)N)C(=O)O` [S-3, RNAL] (H-RNAL-OH; N-terminus and C-terminus assumed) the “Adverse Events (number)” value ([1]; 15 μg/mouse) was 0.

In the case of EVNEEGSEAAAVSGM [S-6], the “Adverse Events (kind)” value ([1]; 1.5 μg/mouse) is reported as “thrombosis”, the “Adverse Events (number)” value ([1]; 1.5 μg/mouse) is reported as 1 and the “mortality (early thrombosis at site of aortic allograft transplant)” value ([1]; 15 μg dose) is reported as 100%. The “Adverse Events (kind)” value ([1]; 15 μg/mouse) was “thromboses” and the “Adverse Events (number)” value ([1]; 15 μg/mouse) was 6.

In the case of GTTASSDTAITLIPR [S-7], the “Adverse Events (number)” value ([1]; 15 μg/mouse) is reported as 0.

For IAISRM [S-4, IAISRM], the “Adverse Events (number)” value ([1]; 15 μg/mouse) was 0.

With IPRNAL [S-1, IPRNAL] the “Adverse Events (number)” value ([1]; 1.5 μg/mouse) was 0, the “Adverse Events (kind)” value ([1]; 15 μg/mouse) was “thrombosis; also recorded: fighting injury” and the “Adverse Events (number)” value ([1]; 15 μg/mouse) was 1. For the same molecule, the “Adverse Events (number)” value ([1]; 150 μg/mouse) was 0.

With ISRMAV [S-2, ISRMAV] the “Adverse Events (kind)” value ([1]; 15 μg/mouse) was “thrombosis” and the “Adverse Events (number)” value ([1]; 15 μg/mouse) was 1.

For MAVLYPQVIVDHPFFFLIRNR [S-8], the “Adverse Events (number)” value ([1]; 15 μg/mouse) was 0.

In the case of TAIVANKPF [S-5], the “Adverse Events (number)” value ([1]; 1.5 μg/mouse) is reported as 0, the “Adverse Events (number)” value ([1]; 15 μg/mouse) is reported as 0 and the “Adverse Events (number)” value ([1]; 150 μg/mouse) is reported as 0.

B1: NSP: mammalian serpin, neuroserpin, that binds tPA and uPA (protein)
chain: TGATFPEEAIADLSVNMYNRLRATGEDENILFSPLSIALAMGMMELGAQGSTQKEIRHSMGYDSLKNGEEFSFLKEFSNMVTAKESQYVMKIANSLFVQNGFHVNEEFLQMMKKYFNAAVNHVDFSQNVAVANYINKWVENNTNNLVKDLVSPRDFDAATYLALINAVYFKGNWKSQFRPENTRTFSFTKDDESEVQIPMMYQQGEFYYGEFSDGSNEAGGIYQVLEIPYEGDEISMMLVLSRQEVPLATLEPLVKAQLVEEWANSVKKQKVEVYLPRFTVEQEIDLKDVLKALGITEIFIKDANLTGLSDNKEIFLSKAIHKSFLEVNEEGSEAAAVSGMIAISRMAVLYPQVIVDHPFFFLIRNRRTGTILFMGRVMHPETMNTSGHDFEEL
For B1, the “IEx/IMon ratio (membrane fluidity)” value [2] was “consistently reduced membrane fluidity significantly”, the “inhibition of uPA activity” value [3] was “inhibited” and the “Adverse Events (kind)” value ([1]; 15 μg/mouse) was “thrombosis”. For the same molecule, the “Adverse Events (number)” value ([1]; 15 μg/mouse) was 1.

B2: Serp-1: secreted myxomavirus-derived protein (serpin) that binds and inhibits uPA, tPA, plasmin and factor X (protein)
chain: RDIGLWTFRYVYNESDNVVFSPYGLTSALSVLRIAAGGNTKREIDVPESVVEDSDAFLALRELFVDASVPLRPEFTAEFSSRFNTSVQRVTFNSENVKDVINSYVKDKTGGDVPRVLDASLDRDTKMLLLSSVRMKTSWRHVFDPSFTTDQPFYSGNVTYKVRMMNKIDTLKTETFTLRNVGYSVTELPYKRRQTAMLLVVPDDLGEIVRALDLSLVRFWIRNMRKDVCQVVMPKFSVESVLDLRDALQRLGVRDAFDPSRADFGQASPSNDLYVTKVLQTSKIEADERGTTASSDTAITLIPRNALTAIVANKPFMFLIYHKPTTTVLFMGTITKGEKVIYDTEGRDDVVSSV
For B2, the “IEx/IMon ratio (membrane fluidity)” value [2] is given as “consistently reduced membrane fluidity significantly”, the “early markers of myocardial damage” value [4] is given as “reduced early markers of myocardial damage” and the BRCA1 gene expression (THP-1 monocytes) is given as “induced”. The “Selectin P ligand (CD162) gene expression” value (THP-1 monocytes) was “induced”, the “cyclin-dependent kinase inhibitor 1B (CDKN1; p27) gene expression” value (THP-1 monocytes) was “induced” and the “glycogen synthase (GYS) gene expression” value (THP-1 monocytes) was “induced”. For the same molecule, the BCL-2 gene expression (Jurkat T cells) was “had no effect”, the TCF7 gene expression (Jurkat T cells) was “inhibited” and the “CCL 20 gene expression” value (Jurkat T cells; data not shown) was “had no effect”. For the same molecule, the CCND-1 gene expression (Jurkat T cells; data not shown) was “had no effect”, the MMP7 gene expression (Jurkat T cells; data not shown) was “had no effect” and the “interleukin-8 (IL-8) gene expression” value (Jurkat T cells; data not shown) was “had no effect”. The plasma half-life [5] was 20 to 60 min, the “inhibition of uPA activity” value [3] was “inhibited; also recorded: dose dependent with greater inhibition at the higher concentration (500 ng)” and the “survival in mouse models of lethal viral sepsis” value (lethal viral sepsis) was “improved survival”.
